Experimental data from patent US20160228506A1, “Compositions and Formulations for Prevention and Reduction of Tumorigenesis, Cancer Cell Proliferation and Invasion, and Methods of Production and Use Thereof in Cancer Treatment” (PRONUTRIA, INC., priority 2013, published 2016).

B1: SEQID-00643: protein of the 168 nutritive polypeptide library (protein, listed as Linum usitatissimum)
chain: MVGCGRIGKLLLQRLKPFGCNLLYHDRLKMEPELETQIGAKFEEDVDAMLPKCDVVVINTPLTEKTKGMFDKDRILKMKKG
B2: SEQID-00620: protein of the 168 nutritive polypeptide library (protein, listed as Saccharomyces cerevisiae)
chain: MSDVEEVVEVQEETVVEQTAEVTIEDALKVVLRTALVHDGLARGLRESTKALTRGEALLVVLVSSVTEANIIKLVEGLANDPENKVPLIKVADAKQLGEWAGLGKIDREGNARKVVGASVVVVKNWGAETDELSMIMEHFSQQ
modifications: source: /note="strain ATCC 204508 / S288c"
notes: protein of the 168 nutritive polypeptide library
B3: SEQID-00625: protein of the 168 nutritive polypeptide library (protein)
chain: MPFKRYVEIGRVAQINYGKEYGRLVVIVDVIDQNRALVDAPDMVRSQVNFKRLSLTDIKIDIKRVPKKKDLVKAMEDADVKTKWEKSSWGRKLIVRKRRASLNDFDRFKIMLAKIKKAAVVRQELAKLRKSA
modifications: Glycine max
notes: as for B2
B4: SEQID-00633: protein of the 168 nutritive polypeptide library (protein, listed as Saccharomyces cerevisiae)
chain: MSDAGRKGFGEKASEALKPDSQKSYAEQGKEYITDKADKVAGKVQPEDNKGVFQGVHDSAEKGKDNAEGQGESLADQARDYMGAAKSKLNDAVEYVSGRVHGEEDPTKK
modifications: source: /note="strain ATCC 204508 / S288c"
notes: as for B2
B5: SEQID-00624: protein of the 168 nutritive polypeptide library (protein)
chain: MSEKTDQILEQLKSLSLLEASELVKQIEEAFGVDASASAGGGMMMMAAPGMAAPGAEAAAEEEKTEFDVILTEFPADKKIAVLKVVRSITGLGLKEAKDLVESAPKAIKEATTKEDAESIKKQLEESGAKVEVK
modifications: Arthrospira platensis NIES-39
notes: as for B2
B6: SEQID-00628: protein of the 168 nutritive polypeptide library (protein, listed as Saccharomyces cerevisiae)
chain: MSDFQKEKVEEQEQQQQQIIKIRITLTSTKVKQLENVSSNIVKNAEQHNLVKKGPVRLPTKVLKISTRKTPNGEGSKTWETYEMRIHKRYIDLEAPVQIVKRITQITIEPGVDVEVVVASN
modifications: source: /note="strain ATCC 204508 / S288c"
notes: as for B2
B7: SEQID-00638: protein of the 168 nutritive polypeptide library (protein)
chain: MKTNELVQRVAEKAKLPKKRVRAILDLAFSAISEEIESGQPVVVRGLGKFTLKEQPARTKTNPETGETTEVPARTVVNFRVIKPSKDKEEADS
modifications: Arthrospira platensis NIES-39
notes: as for B2
B8: SEQID-00642: protein of the 168 nutritive polypeptide library (protein, listed as Saccharomyces cerevisiae)
chain: MADQENSPLHTVGFDARFPQQNQTKHCWQSYVDYHKCVNMKGEDFAPCKVFWKTYNALCPLDWIEKWDDQREKGIFAGDINSD
modifications: source: /note="strain ATCC 204508 / S288c"
notes: as for B2
B9: SEQID-00634: protein of the 168 nutritive polypeptide library (protein, listed as Saccharomyces cerevisiae)
chain: MPPKQQLSKAAKAAAALAGGKKSKKKWSKKSMKDRAQHAVILDQEKYDRILKEVPTYRYVSVSVLVDRLKIGGSLARIALRHLEKEGIIKPISKHSKQAIYTRATASE
modifications: source: /note="strain ATCC 204508 / S288c"
notes: as for B2
B10: SEQID-00632: protein of the 168 nutritive polypeptide library (protein, listed as Saccharomyces cerevisiae)
chain: MSTVTKYFYKGENTDLIVFAASEELVDEYLKNPSIGKLSEVVELFEVFTPQDGRGAEGELGAASKAQVENEFGKGKKIEEVIDLILRNGKPNSTTSSLKTKGGNAGTKAYN
modifications: source: /note="strain ATCC 204508 / S288c"
notes: as for B2
B11: SEQID-00626: protein of the 168 nutritive polypeptide library (protein, listed as Lactobacillus acidophilus)
chain: MVMTDPIADYLTRIRNANMAKHDSVEIPASNIKKSISEILKREGFIRDYEVADDNKQGVIKVFLKYGPNGERVISGLKRISKPGLRNYVSAEDLPKVLNGLGIAIVSTSAGVITDKEARQKNVGGEVIAYIW
modifications: source: /note="strain 30SC"
notes: as for B2
B12: SEQID-00619: protein of the 168 nutritive polypeptide library (protein, listed as Linum usitatissimum)
chain: MAPKAAEKKPAEKKPAEEKKAEKAPAEKKPRAEKKLPKEGGAAAADKKKKRNKKNVETYKIYIFKVLKQVHPDIGISSKAMGIMNSFINDIFEKLAAESSRLARYNKKPTITSREIQTAVRLVLPGELAKHAVSEGTKAVTKFTSS
B13: SEQID-00618: protein of the 168 nutritive polypeptide library (protein)
chain: MDAGGKIKKGAGGRKGGGPKKKPVSRSVKAGLQFPVGRIGRYLKKGRYAQRVGTGAPVYLAAVLEYLAAEVLELAGNAARDNKKNRIIPRHVLLAVRNDEELGKLLAGVTIAHGGVLPNINPVLLPKKTERASKEPKSPSKATKSPKKA
modifications: Glycine max
notes: as for B2
B14: SEQID-00641: protein of the 168 nutritive polypeptide library (protein, listed as Saccharomyces cerevisiae)
chain: MLPRSALARSLQLQRGVAARFYSEGSTGTPRGSGSEDSFVKRERATEDFFVRQREKEQLRHLKEQLEKQRKKIDSLENKIDSMTK
modifications: source: /note="strain ATCC 204508 / S288c"
notes: as for B2
B15: SEQID-00623: protein of the 168 nutritive polypeptide library (protein, listed as Solanum lycopersicum)
chain: MKPAEKKPAEKTPVAEKAPAEKKPKAGKKLPKDAAAGDKKKKRSKKAVETYKIYIFKVLKQVHPDIGISSKAMGIMNSFINDIFEKLAQEASRLARYNKKPTITSREIQTAVRLVLPGELAKHAVSEGTKAVTKFTSS
B16: SEQID-00648: protein of the 168 nutritive polypeptide library (protein)
chain: MKRVHLPTDRETGKFRGFAFVEMNTEEEEIHAIEELDGAEWMGREIRVNLARPREDKKPSDRGGRKPRY
modifications: Arthrospira platensis C1
notes: as for B2
B17: SEQID-00645: protein of the 168 nutritive polypeptide library (protein, listed as Saccharomyces cerevisiae)
chain: MAYTSHLSSKTGLHFGRLSLRSLTAYAPNLMLWGGASMLGLFVFTEGWPKFQDTLYKKIPLLGPTLEDHTPPEDKPN
modifications: source: /note="strain ATCC 204508 / S288c"
notes: as for B2
B18: SEQID-00298 (AN): nutritive polypeptide naturally produced in Cow (protein, listed as Bos taurus)
chain: MGLSDGEWQLVLNAWGKVEADVAGHGQEVLIRLFTGHPETLEKFDKFKHLKTEAEMKASEDLKKHGNTVLTALGGILKKKGHHEAEVKHLAESHANKHKIPVKYLEFISDAIIHVLHAKHPSDFGADAQAAMSKALELFRNDMAAQYKVLGFHG
B19: SEQID-00338 (BS): nutritive polypeptide (protein, listed as Saccharomyces cerevisiae)
chain: MSSSESIRMVLIGPPGAGKGTQAPNLQERFHAAHLATGDMLRSQIAKGTQLGLEAKKIMDQGGLVSDDIMVNMIKDELTNNPACKNGFILDGFPRTIPQAEKLDQMLKEQGTPLEKAIELKVDDELLVARITGRLIHPASGRSYHKIFNPPKEDMKDDVTGEALVQRSDDNADALKKRLAAYHAQTEPIVDFYKKTGIWAGVDASQPPATVWADILNKLGKD
modifications: source: /note="strain ATCC 204508 / S288c"
B20: SEQID-00001: nutritive polypeptide (protein, listed as Gallus gallus)
chain: MGSIGAASMEFCFDVFKELKVHHANENIFYCPIAIMSALAMVYLGAKDSTRTQINKVVRFDKLPGFGDSIEAQCGTSVNVHSSLRDILNQITKPNDVYSFSLASRLYAEERYPILPEYLQCVKELYRGGLEPINFQTAADQARELINSWVESQTNGIIRNVLQPSSVDSQTAMVLVNAIVFKGLWEKAFKDEDTQAMPFRVTEQESKPVQMMYQIGLFRVASMASEKMKILELPFASGTMSMLVLLPDEVSGLEQLESIINFEKLTEWTSSNVMEERKIKVYLPRMKMEEKYNLTSVLMAMGITDVFSSSANLSGISSAESLKISQAVHAAHAEINEAGREVVGSAEAGVDAASVSEEFRADHPFLFCIKHIATNAVLFFGRCVSP
B21: SEQID-00236: nutritive polypeptide (protein, listed as Bos taurus)
chain: ALQEAHQQTLDDLQAEEDKVNTLTKAKTKLEQQVDDLEGSLEQEKKLRMDLERAKRKLEGDLKLA
B22: SEQID-00284: nutritive polypeptide (protein, listed as Arabidopsis thaliana)
chain: KLEHGVHVVSGTPGRVCDMIKRRSLRTRAIKLLILDESDEMLSRGFKDQIYDVYRYLPPDLQVCLVSATLPHEILEMTSKFMTEPVKILVKRDELTLEGIKQFFVAVEKEEWK

Assay: SGF digest of 168 nutritive polypeptide library, intact protein by LC-MS/MS
Format: in vitro ADME
Details: 168 nutritive polypeptide library SGF digest, LC-MS/MS spectral counts
How it was run: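 A 168-protein IMAC-purified recombinant library was digested in simulated gastric fluid and the 0 and 10 min samples were profiled by SDS-PAGE fractionation, in-gel trypsin digestion and nanoLC-MS/MS. Percent intact protein at 10 min is the ratio of spectral counts (t10/t0), summed over the peak fraction and two flanking fractions. Filters were 1% FDR and at least two unique peptides.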

Going from B1 to B2, the “% Intact Protein at 10 min” value falls from 13.6% to 0%.

Compared with B3, B4 is higher in “% Intact Protein at 10 min” value: 0% for the first, 92.1% for the second.

B5 and B6 are the same in “% Intact Protein at 10 min” value: 0% for the first, 0% for the second.

First: B7
Second: B8
The “% Intact Protein at 10 min” value of the first is lower: 0% for the first, 75% for the second.

First: B9
Second: B10
The “% Intact Protein at 10 min” value of the first is higher: 36.8% for the first, 1.2% for the second.

Compared with B11, B12 is higher in “% Intact Protein at 10 min” value: 0% for the first, 68.5% for the second.

Going from B13 to B14, the “% Intact Protein at 10 min” value rises from 0% to 21.2%.

First: B15
Second: B16
The “% Intact Protein at 10 min” value of the first is higher: 63.6% for the first, 39.5% for the second.

With B17 the “% Intact Protein at 10 min” value was 0%.

Assay: Intact half-life during simulated gastric fluid (SGF) digestion
Details: SGF pH 1.5, pepsin:polypeptide 1:20 w/w, 37° C.; intact protein
Experimental: In this experiment the nutritive polypeptide was exposed to a series of proteases that are active in the stomach (pepsin) and intestine (trypsin and chymotrypsin), and the presence of intact protein was measured over time. Specifically, the nutritive polypeptide was first treated at a concentration of 2 g/L with simulated gastric fluid (SGF) (0.03 M NaCl, titrated with HCl to pH 1.5 with a final pepsin:polypeptide ratio of 1:20 w/w) at 37° C. Time points were sampled from the reaction and quenched by addition of 0.2 M Na2CO3. […] Time points were sampled from the reaction and quenched by addition of Trypsin/Chymotrypsin Inhibitor (Sigma) solution until 240 min.
Time point samples were analyzed for intact protein by chip electrophoresis, polyacrylamide gel electrophoresis, or western blot. For chip electrophoresis (Labchip GX II), samples were analyzed using a HT Low MW Protein Express LabChip® Kit (following the manufacturer's protocol). A protein ladder was loaded every 12 samples for molecular weight determination (kDa) and quantification. For polyacrylamide gel electrophoresis, samples (1 μg) were separated on a NuPAGE® Novex® Bis-Tris Precast gel (Life Technologies) according to the manufacturer's protocol. The gel was stained using SimplyBlue™ SafeStain (Invitrogen) and imaged using a Chemidoc XRS+ (BioRad) or transferred onto nitrocellulose membranes using the iBlot® Dry Blotting System (Life Technologies) and iBlot® Western Detection Kit (Life Technologies) according to the manufacturer's protocol. Proteins were detected by blotting with Anti-His [C-term]-HRP antibody diluted 3:5000 in Blok™-PO Blocking Buffer using the SNAP I.d.® Protein Detection System (Millipore) according to the manufacturer's protocol. Blots were treated with Luminata Classico Western HRP Substrate (Millipore) according to the manufacturer's protocol and imaged using chemiluminescent detection on the Molecular Imager® Gel Doc™ XR+ System (Bio-Rad). Quantification of intact protein was determined by densitometry using ImageLab (BioRad). For all analysis methods the relative concentration of the polypeptide at each time point (if detected) was plotted overtime and fit to an exponential curve to calculate the intact half-life.
Specifically, the t=0 (enzyme-free control) and t=2 min samples from the SGF digest were analyzed for intact protein as described by chip electrophoresis, SDS-PAGE, western blot, and/or LC-MS/MS. Relative quantities of polypeptides at each time point were determined and the percentage of intact protein remaining at t=2 was determined. Intact half-life values determined using this method are reported as greater or less than 2 min to indicate more or less than 50% of the protein remained intact at t=2 min, respectively.

B18 and B19 are within 1.5-fold of each other in “SGF Half-life (t½)” value: 0.3 min for the first, 0.2 min for the second.

First: B20
Second: B21
The “SGF Half-life (t½)” value of the first is 2-fold lower: 5 min for the first, 10 min for the second.

For B22, the “SGF Half-life (t½)” value was 1 min.
